# Experimental data as given in patent US20040005687A1, “Kinase crystal structures” (priority 2001, published 2004).
# Where two headings read alike, the source gives them in different places. Square brackets hold non-standard residues; d marks the D form. Ends that are not written are not given here. Peptide text beside a SMILES is read from it. pS = N[C@@H](COP(=O)(O)O)C(=O)O
# Tests used:
# [1] = molecular target: T1, pΔPH-PKB-ΔC (PKBβ residues 146 to 460, phosphorylated in vitro on Thr-309) (Homo sapiens, UniProt P31751); test: Protein kinase B assay, peptide stimulation of pΔPH-PKB-ΔC (Crosstide substrate); type: biochemical; settings: for maximal fold induction at 600 µM: read-out: maximum activation (fold stimulation) of pΔPH-PKB-ΔC kinase activity; for fold lower affinity than PIFtide (from EC50 values): relative to PIFtide
# T1 construct: pΔPH-PKB-ΔC (residues 146 to 460, phosphorylated in vitro on Thr-309); 6xHis (pFastBacHTa, TEV-cleavable) (N, cleaved yes); made in house; host or cells: Sf9 insect cells / baculovirus
# T1 sequence (P31751 146-460, stated change not applied): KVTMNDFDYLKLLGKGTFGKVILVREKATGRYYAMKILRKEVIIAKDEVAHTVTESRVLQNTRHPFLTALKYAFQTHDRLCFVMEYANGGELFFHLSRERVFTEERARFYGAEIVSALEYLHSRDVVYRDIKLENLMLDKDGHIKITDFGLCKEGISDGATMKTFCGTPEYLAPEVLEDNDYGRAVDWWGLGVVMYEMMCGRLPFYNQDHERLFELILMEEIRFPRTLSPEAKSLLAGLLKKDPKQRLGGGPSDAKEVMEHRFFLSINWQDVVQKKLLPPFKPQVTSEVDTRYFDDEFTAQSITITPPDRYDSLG
# Method: To test the model that Ser 474 phosphorylation promotes an interaction between the hydrophobic motif and the induced hydrophobic groove of the N-terminal lobe, thereby causing an allosteric activation of the kinase, the ability of peptides modelled on the hydrophobic motif of PKB to activate the enzyme via an intermolecular association with the N-terminal lobe was assessed.
# (§1) PKB was assayed essentially as described by Andjelkovic et al. (1999) with 30 μM Crosstide (GRPRTSSAEG) as substrate except the protein kinase A inhibitor peptide was not added to the reactions. For peptide stimulation experiments the various peptides were dissolved in water and added to the kinase assay mix prior to adding the PKB protein. Peptides were synthesized by Franz Fischer at the FMI or purchased from Neosystem, Strasburg, France.
# (§2) All experiments were performed in either duplicate or triplicate.
# [2] = molecular target: T2, ΔPH-PKB phosphorylated on Thr 309 (Homo sapiens, UniProt P31751); test: Protein kinase B assay, peptide stimulation of ΔPH-PKB phosphorylated on Thr 309; type: biochemical
# T2 construct: ΔPH-PKBβ (residues 146-481) on Thr309 Using PDK1; 6xHis (pFastBacHTa, TEV-cleavable) (N, cleaved yes); made in house; host or cells: Sf9 insect cells / baculovirus
# T2 sequence (P31751 146-481, stated change not applied): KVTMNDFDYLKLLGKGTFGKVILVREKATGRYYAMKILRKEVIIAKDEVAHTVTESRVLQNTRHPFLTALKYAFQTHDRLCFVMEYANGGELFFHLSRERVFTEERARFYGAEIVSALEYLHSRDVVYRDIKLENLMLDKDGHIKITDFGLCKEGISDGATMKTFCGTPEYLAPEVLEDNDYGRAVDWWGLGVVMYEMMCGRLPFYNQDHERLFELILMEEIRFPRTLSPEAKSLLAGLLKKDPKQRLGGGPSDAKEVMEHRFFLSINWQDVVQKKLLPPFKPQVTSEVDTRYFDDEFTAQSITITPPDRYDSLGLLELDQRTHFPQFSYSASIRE
# Method: as §1, §2
# [3] = molecular target: T3, His tagged pΔPH-PKB-ΔC wild type (Homo sapiens, UniProt P31751); test: PIFtide responsiveness of His tagged pΔPH-PKB-ΔC wild type expressed in HEK cells; type: biochemical
# T3 construct: pΔPH-PKB-ΔC (residues 146 to 460, phosphorylated in vitro on Thr-309); His tag; made in house; host or cells: HEK cells (transient expression), purified on Ni-NTA
# T3 sequence (P31751 146-460, stated change not applied): as the sequence (P31751 146-460, stated change not applied) above
# Method: To test the notion that a hydrophobic groove is induced in PKB to engage the hydrophobic motif, and activate the kinase, a series of His tagged pΔPH-PKB-ΔC hydrophobic groove mutants was prepared and their responsiveness to PIFtide assessed. PKB mutants were transiently expressed in HEK cells, phosphorylated in vitro with PDK1, and purified using Ni-NTA agarose.
# Wild type PKB prepared using this procedure was stimulated ˜5-fold by 130 μM PIFtide (FIG. 6B).
# as §1
# [4] = molecular target: T4, ΔPH-PKB-ΔC (PKBβ residues 146 to 460, not phosphorylated on Thr-309) (Homo sapiens, UniProt P31751); test: Protein kinase B assay, peptide stimulation of ΔPH-PKB-ΔC with unphosphorylated Thr 309; type: biochemical
# T4 construct: ΔPH-PKB-ΔC(residues 146 to 460, not phosphorylated on Thr-309); 6xHis (pFastBacHTa, TEV-cleavable) (N, cleaved yes); made in house; host or cells: Sf9 insect cells / baculovirus
# T4 sequence (P31751 146-460, stated change not applied): as above
# Method: as §1, §2
# [5] = molecular target: T5, ΔPH-PKB phosphorylated on both Thr 309 and Ser 474 (Homo sapiens, UniProt P31751); test: Protein kinase B assay, peptide stimulation of ΔPH-PKB phosphorylated on both Thr 309 and Ser 474; type: biochemical
# T5 construct: ΔPH-PKBβ (residues 146-481) on Thr309 Using PDK1; 6xHis (pFastBacHTa, TEV-cleavable) (N, cleaved yes); made in house; host or cells: Sf9 insect cells / baculovirus
# T5 sequence (P31751 146-481, stated change not applied): as the sequence (P31751 146-481, stated change not applied) above
# Method: as §1, §2
# [6] = molecular target: His tagged pΔPH-PKB-ΔC V194A-V198A mutant (human) (UniProt P31751); test: cell-based or functional assay
# Sequence of His tagged pΔPH-PKB-ΔC V194A-V198A mutant (human) (P31751 146-460 V194A/V198A): as the sequence (P31751 146-460, stated change not applied) above, with V49A, V53A counted along it
# [7] = molecular target: His tagged pΔPH-PKB-ΔC, wild type, expressed in HEK cells (human) (UniProt P31751); test: cell-based or functional assay
# Sequence of His tagged pΔPH-PKB-ΔC, wild type, expressed in HEK cells (human) (P31751 146-460, stated change not applied): as the sequence (P31751 146-460, stated change not applied) above
# [8] = molecular target: pΔPH-PKBβ-ΔC (human PKBβ residues 146-460, phosphorylated in vitro on Thr-309) (human) (UniProt P31751); test: cell-based or functional assay
# [9] = molecular target: ΔPH-PKB (human PKBβ residues 146-481) phosphorylated on Thr 309 (human) (UniProt P31751); test: cell-based or functional assay
# [10] = molecular target: ΔPH-PKBβ-ΔC (human PKBβ residues 146-460, not phosphorylated on Thr-309) (human) (UniProt P31751); test: isothermal titration calorimetry
# [11] = molecular target: pΔPH-PKBβ-ΔC (human PKBβ residues 146-460, phosphorylated in vitro on Thr-309) (human) (UniProt P31751); test: isothermal titration calorimetry, PIFtide titrated into the kinase domain
# [12] = molecular target: ΔPH-PKBβ-ΔC (human PKBβ residues 146-460, not phosphorylated on Thr-309) (human) (UniProt P31751); test: as above
# [13] = molecular target: pΔPH-PKBβ-ΔC (human PKBβ residues 146-460, phosphorylated in vitro on Thr-309) (human) (UniProt P31751); test: cell-based or functional assay; remark: listed apart in the source
molecule,measurement,setting,value
"CC[C@H](C)[C@H](NC(=O)[C@H](Cc1ccc(O)cc1)NC(=O)[C@H](CC(=O)O)NC(=O)[C@H](Cc1ccccc1)NC(=O)[C@H](CC(=O)O)NC(=O)[C@H](CCCNC(=N)N)NC(=O)[C@H](Cc1ccccc1)NC(=O)[C@H](CCSC)NC(=O)[C@H](CCC(=O)O)NC(=O)[C@H](CCC(N)=O)NC(=O)[C@H](CCC(=O)O)NC(=O)[C@H](CCC(=O)O)NC(=O)[C@H](CCC(=O)O)NC(=O)[C@H](CO)NC(=O)[C@H](CC(C)C)NC(=O)[C@@H](NC(=O)[C@H](CCCNC(=N)N)NC(=O)[C@@H]1CCCN1C(=O)[C@H](CCC(=O)O)NC(=O)[C@@H](N)CCCNC(=N)N)[C@@H](C)CC)C(=O)N[C@@H](C)C(=O)N[C@@H](CC(=O)O)C(=O)N[C@@H](Cc1c[nH]c2ccccc12)C(=O)O [PIFtide, reference compound] (H-REPRILSEEEQEMFRDFDYIADW-OH; N-terminus and C-terminus assumed)",maximal fold induction at 600 µM,[1],15
same,activation of ΔPH-PKB phosphorylated on Thr 309,[2],5 fold
same,fold induction at 130 µM,[3]; read-out: stimulation of wild type PKB prepared from HEK cells,~5
CC[C@H](C)[C@H](NC(=O)[C@H](CO)NC(=O)[C@H](C)NC(=O)[C@H](CO)NC(=O)[C@H](Cc1ccc(O)cc1)NC(=O)[C@H](CC(=O)O)NC(=O)[C@H](Cc1ccccc1)NC(=O)[C@H](CCC(N)=O)NC(=O)[C@@H]1CCCN1C(=O)[C@H](Cc1ccccc1)NC(=O)[C@H](Cc1c[nH]cn1)NC(=O)[C@@H](NC(=O)[C@H](CCCNC(=N)N)NC(=O)[C@H](CCC(N)=O)NC(=O)[C@H](CC(=O)O)NC(=O)[C@H](CC(C)C)NC(=O)[C@H](CCC(=O)O)NC(=O)[C@H](CC(C)C)NC(=O)[C@H](CC(C)C)NC(=O)CN)[C@@H](C)O)C(=O)N[C@@H](CCCNC(=N)N)C(=O)N[C@@H](CCC(=O)O)C(=O)O [PKB HM-D] (H-GLLELDQRTHFPQFDYSASIRE-OH; N-terminus and C-terminus assumed),maximal fold induction at 600 µM,[1],3
same,fold lower affinity than PIFtide (from EC50 values),[1],~1000 fold
"CC[C@H](C)[C@H](NC(=O)[C@H](CO)NC(=O)[C@H](C)NC(=O)[C@H](CO)NC(=O)[C@H](Cc1ccc(O)cc1)NC(=O)[C@H](COP(=O)(O)O)NC(=O)[C@H](Cc1ccccc1)NC(=O)[C@H](CCC(N)=O)NC(=O)[C@@H]1CCCN1C(=O)[C@H](Cc1ccccc1)NC(=O)[C@H](Cc1c[nH]cn1)NC(=O)[C@@H](NC(=O)[C@H](CCCNC(=N)N)NC(=O)[C@H](CCC(N)=O)NC(=O)[C@H](CC(=O)O)NC(=O)[C@H](CC(C)C)NC(=O)[C@H](CCC(=O)O)NC(=O)[C@H](CC(C)C)NC(=O)[C@H](CC(C)C)NC(=O)CN)[C@@H](C)O)C(=O)N[C@@H](CCCNC(=N)N)C(=O)N[C@@H](CCC(=O)O)C(=O)O [PKB HM-P, GLLELDQRTHFPQFpSYSASIRE] (H-GLLELDQRTHFPQF[pS]YSASIRE-OH; N-terminus and C-terminus assumed)",maximal fold induction at 600 µM,[1],4
same,fold lower affinity than PIFtide (from EC50 values),[1]; listed as phosphorylated HM-peptide,~1000 fold
same,activation of ΔPH-PKB-ΔC with unphosphorylated Thr 309 (in words),[4],unable to activate
same,further activation of ΔPH-PKB phosphorylated on both Thr 309 and Ser 474 (in words),[5],did not further activate
same,activation of wild type PKB prepared from HEK cells (in words),[3],did not elicit measurable activation
GLLELDQRTHFPQFSYSASIRE [PKB HM-S],stimulation of pΔPH-PKB-ΔC kinase activity (in words),"[1]; Crosstide substrate, dose response FIG. 5",did not stimulate
"MFRDFDYIADW [PIFtide1, 11-residue peptide encompassing the six-residue hydrophobic motif of PIFtide]",activation of pΔPH-PKB-ΔC by modified PIFtide and HM peptides (in words),"[1]; PIFtide concentrations 210-250 μM, PKB HM-peptide up to 1.2 mM, FIG. 6A",essentially recapitulates the activation
PIFtide (peptide),PIFtide activation relative to wild type (% of wild type),[6],25
same,stimulation of kinase activity by 130 µM PIFtide,[7],5 fold
same,EC50 of kinase activation,[8],3 µM
same,peptide concentration giving maximum activation,[8],20 µM
same,specific activity when maximally activated by PIFtide,[8],350 nmol/min/mg
same,stimulation of kinase activity towards Crosstide,[8],15 fold
same,stimulation of kinase activity towards Crosstide,[9],5 fold
same,enthalpy change (ΔH),[10],-16 kcal/mol
same,entropy term (TΔS),[10],-9.2 kcal/mol
same,Kd,[11],6 µM
same,Kd,[12],5.5 µM
GLLELDQRTHFPQF[pS]YSASIRE [PKB HM-P],EC50 of kinase activation (estimated from FIG. 5A),[13],2.3 mM
same,"fold lower affinity than PIFtide, from estimated EC50",[13],1000 fold
same,stimulation of kinase activity towards Crosstide,[13],4 fold
GLLELDQRTHFPQFDYSASIRE [PKB HM-D],EC50 of kinase activation (estimated from FIG. 5A),[13],3.6 mM
same,"fold lower affinity than PIFtide, from estimated EC50",[13],1000 fold
same,stimulation of kinase activity towards Crosstide,[13],3 fold
